Results taken from US20230243822A1, “MOLECULAR DISEASE PROFILE AND USE THEREOF FOR MONITORING AND TREATING RHEUMATAOID ARTHRITIS” (JANSSEN BIOTECH, INC., priority 2020, published 2023).

System: 14-analyte M-DP panel
Test: Pharmacodynamic M-DP score, 14-analyte panel (SomaLogic SOMAscan), clinical studies in RA
Format: in vivo, human
Conditions: for M-DP score mean difference ± SD, Good vs. No / M-DP score mean ± SD, DAS28-CRP response group Good / M-DP score mean ± SD, DAS28-CRP response group Moderate / M-DP score mean ± SD, DAS28-CRP response group No: response at week 24
Source text: Serum samples and data from eight interventional clinical studies with seven different active treatments for RA or placebo treatment were obtained and analyzed: sirukumab (anti-IL-6) and placebo treatments in SIRROUND-M (NCT01689532; Takeuchi T, et al. Arthritis Res Ther. 2018 Mar. 7; 20(1): 42), SIRROUND-D (NCT01604343; Takeuchi T, et al. Ann Rheum Dis. 2017 Dec.; 76(12): 2001-2008), and SIRROUND-T (NCT01606761; Aletaha D, et al. Lancet. 2017 Mar. 25; 389(10075): 1206-1217); sirukumab and adalimumab (anti-TNF-alpha) treatments in SIRROUND-H (NCT02019472; Taylor PC, et al. Ann Rheum Dis. 2018 May; 77(5): 658-666); golimumab (anti-TNF-alpha) treatment in GO-FURTHER (NCT00973479; Weinblatt ME, et al. Ann Rheum Dis. 2013 March; 72(3): 381-9); guselkumab (anti-IL-23p19), ustekinumab (anti-IL-12/IL-23p40), and placebo treatments in CNTO1275ARA2001 (NCT01645280; Cox JD, et al. […]); JNJ-40346527 (colony-stimulating factor-1 inhibitor) and placebo treatments in 40346527ARA2001 (NCT01597739; Genovese MC, et al. J Rheumatol. 2015 October; 42(10): 1752-60). Plasma samples were obtained from the RA-MAP TACERA study (Cope AP, et al. Nat Rev Rheumatol. 2018 January; 14(1): 53-60) before (baseline) and 6-months after initiation of conventional synthetic disease-modifying anti-rheumatic drugs (csDMARDs). Details of treatment dose groups, concomitant methotrexate use, and previous experience with csDMARDs and biologics are reported in Table 1. The studies were conducted in accordance with the Declaration of Helsinki. The study protocols were reviewed and approved by an independent ethics committee or institutional review board for each study center. Written informed consent was obtained from all patients before study entry. Additional study details and patient characteristics are available in the referenced publications for each study. For SIRROUND-D and SIRROUND-T studies, sets of serum samples from demographically-matched healthy controls were obtained from commercial sources (BioIVT, Westbury, N.Y.).
Serum samples from baseline (week 0) and the time points indicated in Table 1 were provided for quantification of 1189 serum analytes using the SomaScan v3.1 platform (SomaLogic, Boulder, Colo.; www.somalogic.com), with the exception of RA-MAP TACERA, for which plasma samples were analyzed for 1301 analytes using the SomaScan v3.2 platform. For some studies, a redacted dataset reporting data for a subset of the analytes was obtained. Relative fluorescence unit (RFU) data were sequentially normalized for hybridization controls (internal standards per samples), median signal across all samples (assumes same total protein concentration across sample set), and calibration controls (common sample standards across analysis plates). Samples failed quality control standards defined by Somalogic were excluded from analyses. The normalized RFU values were log2-transformed for subsequent analyses.
Changes in analyte expression levels were calculated for individual samples as the log2 transform of the ratio of the analyte level at the indicated time point (visit level) over the analyte level at baseline (baseline level) for a given subject, i.e., log 2(visit level/baseline level). Changes in RA disease-associated analytes per sample were summarized using a pharmacodynamic (PD) molecular disease profile (M-DP) score, defined as the median value of the log 2(visit level/baseline level) values for analytes in the defined M-DP analyte set. […] PD M-DP scores in the log 2(visit level/baseline level) scale can be transformed to percent change from baseline, using the transformation: (2^M-DP score−1)×100%.
Statistical analyses were performed on log2-transformed data, for either normalized Relative fluorescence unit (RFU) datasets or within-subject fold/baseline datasets. Significance of differences between groups was evaluated using General Linear Models, with t-tests when comparing two groups. […]

[1] = SIRROUND-D, score at week 4, sirukumab SC 50 mg q4w
[2] = SIRROUND-D, score at week 4, sirukumab SC 100 mg q2w
[3] = SIRROUND-D, score at week 24, sirukumab SC 50 mg q4w
[4] = SIRROUND-D, score at week 24, sirukumab SC 100 mg q2w
[5] = SIRROUND-H, score at week 4, sirukumab SC 50 mg q4w or adalimumab SC 40 mg q2w
[6] = SIRROUND-M, score at week 4, sirukumab SC 50 mg q4w
[7] = SIRROUND-M, score at week 4, sirukumab SC 100 mg q2w
[8] = SIRROUND-T, score at week 4, sirukumab SC 50 mg q4w
[9] = SIRROUND-T, score at week 4, sirukumab SC 100 mg q2w
[10] = SIRROUND-T, score at week 24, sirukumab SC 50 mg q4w
[11] = SIRROUND-T, score at week 24, sirukumab SC 100 mg q2w

B1: Sirukumab (antibody, chains of the INN, looked up, V domains shown)
VH: EVQLVESGGGLVQPGGSLRLSCAASGFTFSPFAMSWVRQAPGKGLEWVAKISPGGSWTYYSDTVTGRFTISRDNAKNSLYLQMNSLRAEDTAVYYCARQLWGYYALDIWGQGTTVTVSS
VL: EIVLTQSPATLSLSPGERATLSCSASISVSYMYWYQQKPGQAPRLLIYDMSNLASGIPARFSGSGSGTDFTLTISSLEPEDFAVYYCMQWSGYPYTFGGGTKVEIK
notes: a human anti-interleukin-6 (IL-6) monoclonal antibody
M-DP score mean ± SD, All treated [1]: −0.42 ± 0.34 log2 (fold/baseline)
M-DP score mean ± SD, All treated (SIRROUND-D, score at week 4, sirukumab SC 50 mg q4w, listed as sirukumab): -0.42±0.34 log2 (fold/baseline)
M-DP score mean difference ± SD, Good vs. No [1]: −0.08 ± 0.33 log2 (fold/baseline)
M-DP score mean ± SD, DAS28-CRP response group Good [1]: −0.44 ± 0.32 log2 (fold/baseline)
M-DP score mean ± SD, DAS28-CRP response group Moderate [1]: −0.43 ± 0.36 log2 (fold/baseline)
M-DP score mean ± SD, DAS28-CRP response group No [1]: −0.36 ± 0.35 [44]+ log2 (fold/baseline)
M-DP score mean ± SD, All treated [2]: −0.48 ± 0.30 log2 (fold/baseline)
M-DP score mean ± SD, All treated (SIRROUND-D, score at week 4, sirukumab SC 100 mg q2w, listed as sirukumab): -0.48±0.30 log2 (fold/baseline)
M-DP score mean difference ± SD, Good vs. No [2]: −0.27 ± 0.30 log2 (fold/baseline)
M-DP score mean ± SD, DAS28-CRP response group Good [2]: −0.50 ± 0.29 log2 (fold/baseline)
M-DP score mean ± SD, DAS28-CRP response group Moderate [2]: −0.51 ± 0.30 log2 (fold/baseline)
M-DP score mean ± SD, DAS28-CRP response group No [2]: −0.33 ± 0.32 [28]+ log2 (fold/baseline)
M-DP score mean ± SD, All treated [3]: −0.61 ± 0.40 log2 (fold/baseline)
M-DP score mean ± SD, DAS28-CRP response group Good [3]: −0.65 ± 0.39 log2 (fold/baseline)
M-DP score mean ± SD, DAS28-CRP response group Moderate [3]: −0.59 ± 0.39 log2 (fold/baseline)
M-DP score mean ± SD, DAS28-CRP response group No [3]: 0.06 ± 0.00 [1] log2 (fold/baseline)
M-DP score mean ± SD, All treated [4]: −0.69 ± 0.31 log2 (fold/baseline)
M-DP score mean ± SD, DAS28-CRP response group Good [4]: −0.69 ± 0.34 log2 (fold/baseline)
M-DP score mean ± SD, DAS28-CRP response group Moderate [4]: −0.75 ± 0.20 log2 (fold/baseline)
M-DP score mean ± SD, DAS28-CRP response group No [4]: −0.52 ± 0.37 [2] log2 (fold/baseline)
M-DP score GMean decrease from baseline (SIRROUND-D, week 4, sirukumab 50 mg q4w): 21%
M-DP score GMean decrease from baseline (SIRROUND-D, week 4, sirukumab 100 mg q2w): 25%
M-DP score mean ± SD, All treated [5]: −0.41 ± 0.30 log2 (fold/baseline)
M-DP score mean difference ± SD, Good vs. No [5]: −0.07 ± 0.30 log2 (fold/baseline)
M-DP score mean ± SD, DAS28-CRP response group Good [5]: −0.45 ± 0.33 log2 (fold/baseline)
M-DP score mean ± SD, DAS28-CRP response group Moderate [5]: −0.40 ± 0.30 log2 (fold/baseline)
M-DP score mean ± SD, DAS28-CRP response group No [5]: −0.38 ± 0.22 [12]+ log2 (fold/baseline)
M-DP score mean ± SD, All treated [6]: −0.51 ± 0.37 log2 (fold/baseline)
M-DP score mean difference ± SD, Good vs. No [6]: −0.40 ± 0.37 log2 (fold/baseline)
M-DP score mean ± SD, DAS28-CRP response group Good [6]: −0.59 ± 0.38 log2 (fold/baseline)
M-DP score mean ± SD, DAS28-CRP response group Moderate [6]: −0.46 ± 0.30 log2 (fold/baseline)
M-DP score mean ± SD, DAS28-CRP response group No [6]: −0.19 ± 0.25 [7] log2 (fold/baseline)
M-DP score mean ± SD, All treated [7]: −0.59 ± 0.29 log2 (fold/baseline)
M-DP score mean ± SD, DAS28-CRP response group Good [7]: −0.55 ± 0.27 log2 (fold/baseline)
M-DP score mean ± SD, DAS28-CRP response group Moderate [7]: −0.70 ± 0.34 log2 (fold/baseline)
M-DP score mean ± SD, DAS28-CRP response group No [7]: −0.51 ± 0.10 [2] log2 (fold/baseline)
M-DP score mean ± SD, All treated [8]: −0.34 ± 0.28 log2 (fold/baseline)
M-DP score mean difference ± SD, Good vs. No [8]: −0.06 ± 0.29 log2 (fold/baseline)
M-DP score mean ± SD, DAS28-CRP response group Good [8]: −0.35 ± 0.30 log2 (fold/baseline)
M-DP score mean ± SD, DAS28-CRP response group Moderate [8]: −0.37 ± 0.26 log2 (fold/baseline)
M-DP score mean ± SD, DAS28-CRP response group No [8]: −0.29 ± 0.26 [30]+ log2 (fold/baseline)
M-DP score mean ± SD, All treated [9]: −0.49 ± 0.35 log2 (fold/baseline)
M-DP score mean difference ± SD, Good vs. No [9]: −0.20 ± 0.34 log2 (fold/baseline)
M-DP score mean ± SD, DAS28-CRP response group Good [9]: −0.55 ± 0.35 log2 (fold/baseline)
M-DP score mean ± SD, DAS28-CRP response group Moderate [9]: −0.54 ± 0.35 log2 (fold/baseline)
M-DP score mean ± SD, DAS28-CRP response group No [9]: −0.35 ± 0.33 [39]+ log2 (fold/baseline)
M-DP score mean ± SD, All treated [10]: −0.41 ± 0.33 log2 (fold/baseline)
M-DP score mean difference ± SD, Good vs. No [10]: −0.12 ± 0.34 log2 (fold/baseline)
M-DP score mean ± SD, DAS28-CRP response group Good [10]: −0.46 ± 0.35 log2 (fold/baseline)
M-DP score mean ± SD, DAS28-CRP response group Moderate [10]: −0.41 ± 0.29 log2 (fold/baseline)
M-DP score mean ± SD, DAS28-CRP response group No [10]: −0.34 ± 0.31 [31]+ log2 (fold/baseline)
M-DP score mean ± SD, All treated [11]: −0.53 ± 0.36 log2 (fold/baseline)
M-DP score mean difference ± SD, Good vs. No [11]: −0.18 ± 0.35 log2 (fold/baseline)
M-DP score mean ± SD, DAS28-CRP response group Good [11]: −0.59 ± 0.38 log2 (fold/baseline)
M-DP score mean ± SD, DAS28-CRP response group Moderate [11]: −0.54 ± 0.37 log2 (fold/baseline)
M-DP score mean ± SD, DAS28-CRP response group No [11]: −0.41 ± 0.28 [40]+ log2 (fold/baseline)
M-DP score GMean decrease from baseline (SIRROUND-T, week 4, sirukumab 50 mg q4w): 22%
M-DP score GMean decrease from baseline (SIRROUND-T, week 4, sirukumab 100 mg q2w): 29%
